The text below walks through data of a protein production outcome set (Wang et al. 2014).

A short description of this data set: label from the status in PepcDB records.
Turning to “MSLTNHEQVLTDYLAAFIEELVRAGVKEAIISPGSRSTPLALMMAEHPILKIYVDVDERSAGFFALGLAKASKRPVVLLCTSGTAAANYFPAVAEANLSQIPLIVLTADRPHELRNVGAPQAMDQLHLYGSHVKDFTDMALPENSEEMLRYAKWHGSRAVDIAMKTPRGPVHLNFPLREPLVPILEPSPFTATGKKHHHVHIYYTHEVLDDSSIQKMVTECTGKKGVFVVGPIDKKELEQPMVDLAKKLGWPILADPLSGLRSYGALDEVVIDQYDAFLKEAEIMDKLTPEVVIRFGSMPVSKPLKNWLEQLSDIRFYVVDPGAAWKDPIKAVTDMIHCDERFLLDIMQQNMPDDAKDAAWLNGWTSYNKVAREIVLAEMANTTILEEGKIVAELRRLLPDKAGLFIGNSMPIRDVDTYFSQIDKKIKMLANRGANGIDGVVSSALGASVVFQPMFLLIGDLSFYHDMNGLLMAKKYKMNLTIVIVNNDGGGIFSFLPQANEPKYFESLFGTSTELDFRFAAAFYDADYHEAKSVDELEEAIDKASYHKGLDIIEVKTNRHENKANHQALEGHHHHHH”, the protein production result is “not failed”.
As for “MSLTNSSKSFTKFMAASAVFTMGFLSVPTAGAEQTNQIANKPQAIQWHTNLTNERFTTIAHRGASGYAPEHTFQAYDKSHNELKASYIEIDLQRTKDGHLVAMHDETVNRTTNGHGKVEDYTLDELKQLDAGSWFNKKYPKYARASYKNAKVPTLDEILERYGPNANYYIETKSPDVYPGMEEQLLASLKKHHLLNNNKLKNGHVMIQSFSDESLKKIHRQNKHVPLVKLVDKGELQQFNDQRLKEIRSYAIGLGPDYTDLTEQNTHHLKDLGFIVHPYTVNEKADMLRLNKYGVDGVFTNFADKYKEVIKEGHHHHHH”, the protein production result is reported as “not failed”.
For the sequence “MSLTRTQTYRATIESDIESYLKKAIPIRAPESVFEPMHHLTFAAPRTSASALCVAACELVGGDRSDAMAAAAAVHLMHVAAYTHENLPLTDGPMSKSEIQHKFDPNIELLTGDGIIPFGLELMARSMDPTRNNPDRILRAIIELTRVMGSEGIVEGQYHELGLNQLNDLELIEYVCKKKEGTLHACGAACGAILGGCDEDKIEKLRRFGLYVGTVQGLLGKNRSGFEGRIKELKELAVKELESFGGEKIELIRGVFELEHSLAGVEGHHHHHH”, the protein production result is on record as “not failed”.
Under “MSLTTRHTIGARLLLAFAFSTSLLTIVSLVAWGTWSRLDYQVAELLNQSVPKYNTSYVLETRSSEIRRRIQLIVSATSKVTLNQQYQRLQEDFTAIHAALASLPQNEQQAALQQGYTELRQTTQQINDLVSARIDVDRRLALFAEQLDWLHQDIGMELSPMRQELQWQLERGGAAQPQAQVMFQTINLIQTILDGETQAFLFVDELLKAKHLTQVDNGMRVLQYRLDELSRLSQPLFTQPSSIAYQQLLEEWRNVLRLEGDFQQSLRDRVVLTQKLESTSEQLQIQLDQQHTAIADLVANADALFVQVKGQTAQLVQEGNRVLLICFGLSIGLSLLLMYYFVHKRIVGRLHRLSESLDAIIHNDLSHPITVDGKDEIGALSEQLILYGKKVEEMERTNALSLINNTQASLITCDRYGQIESANPSAMATLRLESLAQPLTLWSCFAKHVQPKVGNULLLFDKKGNLIQKGAESLTLSLGNPEKPHYLRLYLRRYSQGLHDKIIVTITDVTDQEHANRLLEQRVKEKTQSLREKNRELQAEVEERQRAEAHLKKTQGELIQAAKMAVVGQTMTSLAHELNQPLSAMSAYLFSARLALEEAPQAQLATSLDHIENLTERMGKIVNSLRHFARKNSSDESLQPVRLNSVVEQALVLVQTKAKRQQIKLINTLPDDLMVMADALSLEQVLINLIVNGCDASTTFAQPWVKLIALGTEQGMQRIAVIDSGQGFEHEVVDKLFTPFTTTKEVGLGLGLSICQSLVEKMQGRIALASNLEKGAMVILELQQDEKYRTAD” stands “failed”; under “MSLTVVLIVDDHHLIRAGAKNLLEGAFSGMRVEGAETVSDALAFLEADNTVDLILLDVNLPDAEAIDGLVRLKRFDPSNAVALISGETDHELIRAALEAGADGFIPKSADPQVLIHAVSLILEGEIFLPRSYLQGGRMAEVATPLDEGHHHHHH”, “not failed”.
Turning to “MSLVAARPLVLVVDDNAVNREALILYLKSRGIDAVGADGAEEARLYLHYQKRIGLMITDLRMQPESGLDLIRTIRASERAALSIIVVSGDTDVEEAVDVMHLGVVDFLLKPVDLGKLLELVNKELKIGEGHHHHHH”, the protein production entry is “not failed”.
